Experimental findings from patent publication US20110045003A1 (SYNOVEX, published 2011) are described below.

Assay [1] addresses T1, BSA coupled 37-mer Cad-11 peptide encompassing the Cad-11 immunogen (UniProt P55287 54-90, limits assumed, linked to BSA).
T1 construct: domain: 37-mer peptide encompassing the Cad-11 immunogen; also called Cad-11 antigen; Cad-11 peptide immunogen
T1 peptide (looked up): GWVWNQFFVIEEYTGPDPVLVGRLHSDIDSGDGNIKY
Nature of the assay: ELISA on BSA coupled 37-mer peptides, coat 50 ng/ml.

Assay [2] deals with T1, BSA coupled 37-mer Cad-11 peptide …. As to the kind of experiment: ELISA on BSA coupled 37-mer cadherin peptides, coat 500 ng/ml. As to the method: A dilution series from 5 μg/ml to 8 ng/ml in a volume of 100 μl/well of each the humanized anti-Cad-11 antibodies were incubated in the peptide coated wells and incubated at 22° C. for 1 hr. Antibody solution was removed from the wells and the plate washed twice with 200 μl/well of 0.05% Tween-PBS at 22° C. and blotted dry. The goat-anti mouse IgG (Pierce # 31432) was added to each well to plate at a 1:1000 dilution, 100 μl/well and incubate at 22° C. for 30 min. The secondary antibody solution was removed and the plate washed twice with 200 μl/well of 0.05% Tween-PBS at 22° C. and blotted dry. The reaction was developed by adding 100 μl/well tetramethylbenzidine (TMB) reagent IgG (Pierce # 34022, 1 step Turbo TMB-ELISA) to plate and developed at 22° C. for 5 min.
The greatest cross reactivity was seen against Cad-8. […] This assay was repeated with the Cad-11, Cad-8 and Cad-18 antigens with a lower antigen coat concentration of 50 ng/ml and a wider dilution series of the SDP051 antibody (FIG. 41B). […] An EC50 for Cad-18 could not be established due to the low level of binding observed.

Assay [3] has as its target T2, recombinant Cad-11 EC1 human IgG1 fusion protein (R&D Systems Cat. No. 1790-CA-050) (human, UniProt P55287 54-617, limits assumed).
T2 construct: Bought protein; the catalogue product may hold more of the extracellular region; also called recombinant human Cad-11 EC1; recombinant human Cad-11 fusion protein; not shown: human IgG1 part of the bought fusion protein
T2 sequence: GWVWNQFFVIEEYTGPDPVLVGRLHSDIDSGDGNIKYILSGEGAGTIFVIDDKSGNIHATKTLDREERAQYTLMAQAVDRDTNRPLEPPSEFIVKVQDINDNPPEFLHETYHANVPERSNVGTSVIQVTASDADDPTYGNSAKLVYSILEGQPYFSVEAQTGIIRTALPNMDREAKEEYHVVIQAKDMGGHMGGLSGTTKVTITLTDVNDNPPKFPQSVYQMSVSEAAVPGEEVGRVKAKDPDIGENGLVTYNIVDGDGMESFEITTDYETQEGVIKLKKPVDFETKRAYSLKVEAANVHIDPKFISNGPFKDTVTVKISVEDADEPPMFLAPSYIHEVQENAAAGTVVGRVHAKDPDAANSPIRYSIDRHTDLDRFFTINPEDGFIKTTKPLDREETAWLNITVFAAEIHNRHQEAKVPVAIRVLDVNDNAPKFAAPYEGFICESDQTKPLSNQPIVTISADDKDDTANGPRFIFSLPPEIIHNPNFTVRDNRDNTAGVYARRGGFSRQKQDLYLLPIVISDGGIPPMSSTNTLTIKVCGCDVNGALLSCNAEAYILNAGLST
Nature of the assay: competition ELISA on coated recombinant human Cad-11 EC1 fusion; competitor biotinylated SYN0012/H1M1 at 0.1 µg/ml. How it is done:
The binding of the purified humanized composite variant antibodies (SDP011 to SDP151) to a recombinant Cad-11 EC1 human IgG1 fusion protein was assessed in a competition binding ELISA. A dilution series from 5 μg/ml to 0.0022 μg/ml of the humanized or control (SYN0012/H1M1) antibodies was premixed with a constant concentration of biotinylated murine anti-Cad-11 antibody, SYN0012/H1M1 (0.1 μg/ml, final concentration), before incubating for 1 hour at room temperature on a Nunc Immuno MaxiSorp 96 well flat bottom microtitre plate (Fisher Cat. No. DIS-971-030J) pre-coated with 0.25 μg/ml recombinant human Cad-11 EC1 (R&D Systems Cat. No. 1790-CA-050) diluted in PBS. The binding of the biotinylated mAb was detected with streptavidin-HRP (Sigma Cat. No. 55512) and tetramethylbenzidine (TMB) substrate (Invitrogen Cat. No. 00-2023).
The relative IC50 was calculated by dividing the value for the test antibody by that of SYN0012. Antibody expression levels given are for static cultures in T flasks. PI are calculated.

The target in assay [4] is T3, Peptide 1 (amino acids G1-P18 of the Cad-11 EC1 domain) (human).
T3 construct: Range counted on the EC1 domain; also called PEP1
T3 peptide: GWVWNQFFVIEEYTGPDP
As to the kind of experiment: ELISA on coated peptide or protein, antibody at one dilution, goat anti-mouse IgG, TMB, OD450. How it is done: (§1) To determine the epitope within the Cad-11 EC1 domain that the Peptide 4 Cad-11 EC1 antibodies H1M1 and H14 bind, four different peptides spanning the first 37 amino acids of the EC1 region (see FIG. 22) were immobilized in an ELISA format and the ability of the H1M1 and H14 antibodies to bind each of the four peptides was determined. 96-well Reactibind plates were coated overnight at 4° C. with 0.3 ng/well of Peptide 1 (amino acids G1-P18 of the Cad-11 EC1 domain), 0.3 ng/well of Peptide 2 (amino acids G15-N34 of the Cad-11 EC1 domain), 0.3 ng/well of Peptide 3 (amino acids V19-Y37 of the Cad-11 EC1 domain), 0.3 ng/well of the immunogen Peptide 4 (amino acids G1-G33 of the Cad-11 EC1 domain), 20 ng of a fusion protein including the entire EC1 domain (EFL), or 20 ng of control human Ig (Fc-block). The wells were washed twice with PBS-Tween (0.05%), blocked with casein in dH₂0 for 3 hrs at 22° C. and then washed again twice with PBS-Tween (0.05%). Various dilutions of the different Peptide 4 Cad-11 EC1 domain antibodies were transferred to the peptide- or protein-coated wells, incubated for 45 min at 22° C. and then washed twice with PBS-Tween (0.05%). 100 μl of a 1/1000 dilution of goat anti-mouse IgG secondary antibody (Jackson ImmunoResearch, West Grove, Pa.) were added to each well, incubated for 30 min at 22° C. and then washed twice with PBS-Tween (0.05%). 100 μl/well of room temperature TMB reagent was added to each well and color was allowed to develop for 5 min at 22° C.

The target in assay [5] is T4, Peptide 3 (amino acids V19-Y37 of the human Cad-11 EC1 domain) (human).
T4 construct: also called PEP3; peptide V19-Y37
T4 peptide: VLVGRLHSDIDSGDGNIKY
The assay is described as above. As to the method: as §1

B1: humanized anti-Cad-11 EC1 antibody SDP051 (Vκ1/VH5) (antibody, IgG4, V domains shown)
VH: EVQLVQSGAEVKKPGASVKVSCKASGYSFTGYFMNWVRQAPGQGLEWIGRINPYTGDTFYNQKFKGRVTITVDKSTSTAYMELSSLRSEDTAVYYCGRLGSRYWYFDVWGQGTTVTVSS
VL: DVLMTQTPLSSPVTLGQPASISCRSSQSIIHSNGNTYLEWYLQKPGQSPQLLIYKVSNRFSGVPDRFTGSGSGTDFTLKISRVEAEDVGVYYCFQGSHVPWTFGQGTKLEIK
notes: humanized IgG4 (S241P), kappa
B1: the “binding differential (Cad-11 against Cad-8)” value in assay [1] was above 200 fold. Besides, the “fold greater binding to the Cad-11 antigen than to the related antigens from the other cadherins” value in assay [2] was above 100 fold. Further, the “relative IC50 (IC50 of the test antibody divided by that of SYN0012)” value in assay [3] was 0.99 ratio (column head prints µg/mL).

B2: murine H1M1 monoclonal anti-Cad-11 EC1 antibody (hybridoma H1M1, ATCC PTA-9699) (antibody, V domains shown)
VH: EVQLQQSGPELVKPGASVKISCKASGYSFTGYFMNWVKQSHGKSLEWIGRINPYTGDTFYNQKFKGKATLTVDKSSSTAHMELLSLSSEDSAVYYCGRLGSRYWYFDVWGAGTTVTVSS
VL: DVLMTQTPLSLPVSLGDQASISCRSSQSIIHSNGNTYLEWYLQKPGQSPKLLIYKVSNRFSGVPDRFTGSGSGTDFTLKISRVEAEDLGVYYCFQGSHVPWTFGGGTKLEIK
modifications: Biotinylated when used as the labelled competitor in Example 14; the letters are unchanged.
notes: murine antibody raised against Peptide 4; also called SYN0012; SYN0012/H1M1
As for B2, the binding result in assay [4] and in assay [5] was “no binding” throughout.
